In patent US20260028417A1 (SICHUAN KELUN BIOTECH BIOPHARMACEUTICAL, published 2026):

B1: 22B6D2-hIgG (anti-human HER3 fully human antibody) (antibody, V domains shown)
VH: EVHLVESGGGVVQPGRSLRLSCATSGFTFRSYGMHWVRQAPGKGLEWVAVIWYDGSNKYYADSVKGRFTISRDISKNTLYLQMNSLTAEDTAVYYCARYYYDSNGYYDAFDIWGQGTMVTVSS
VL: DIQLTQSPSFLSASVGDRVTITCRASQGISNYLAWYQQKPGKAPKLLIFAASTLQSGVPSRFSGSGSGAEFTLTISSLEPEDFATYYCQQLNSYPITFGQGTRLEIKR
notes: Human IgG1/kappa, expressed in CHO-S cells; also called 22B6D2-hIgG-Bio (biotin-labelled)
B2: 47A3E3-hIgG (anti-human HER3 fully human antibody) (antibody, V domains shown)
VH: EVQLQESGPGLVKPSQTLSLTCAISGDSVSSSQSTWNWIRQSPSRGLEWLGRTFYRSRWYNDYALSMKSRITINPDTSKNQFSLQLNPVTPEDTAVYYCARDTYYYGSGGFDYWGQGSRVTVSS
VL: DIQMTQSPSTLSASVGDRVTITCRASQSLSRWLAWYQQKPEKAPKLLIYKASSLESGVPSRFSGSGSGTEFTLTISTLQPDDFATYYCQQYKNYYSFGQGTKLEIKR
notes: Human IgG1/kappa, expressed in CHO-S cells; also called 47A3E3-hIgG-Bio (biotin-labelled)
B3: 100H7D3-hIgG (anti-human HER3 fully human antibody) (antibody, V domains shown)
VH: EVQLVESGGGVVLPGRSLRLSCAASGFTFSRNAMHWVRQAPGKGLEWVAVIWHDGSNKYYGDSVKGRFTISRDNSKNTLYLQMDSLTAEDTAVYYCARDRGASDFRGQGTLVTVSS
VL: DIQMTQSPSTLSASVGDRVTITCRASQSINNWLAWYQQKPEKAPKLLIYKASSLESGVPSRFSGSGSGTEFTLTISSLQPDDFATYYCQQYNSYSLTFGGGTKVEIKR
notes: Human IgG1/kappa, expressed in CHO-S cells; also called 100H7D3-hIgG-Bio (biotin-labelled)
B4: 44A4A11 (anti-human HER3 chimeric antibody) (antibody, V domains shown)
VH: EVQLLESGGGLVQPGGSLRLSCAASGFTFSSYAMNWVRQAPGKGLEWVSSISDSGGSTYYADSVKGRFTISRDNSKNTLYLQMNSLRAEDTAVYYCAKDGGISMVRGVIIEEGYFDLWGRGTLVTSPQ
VL: DIQLTQSPSFLSASVGDRVTITCRASQGISSYLAWYQQKPGKAPKLLIYVVSTLQSGVPSRFSGSGSGTEFTLTISSLQPEDFATYYCHQLNSYPLTFGGGTKVEIK
B5: 100H7D3 (anti-human HER3 chimeric antibody) (antibody, V domains shown)
VH: B3 VH
VL: DIQMTQSPSTLSASVGDRVTITCRASQSINNWLAWYQQKPEKAPKLLIYKASSLESGVPSRFSGSGSGTEFTLTISSLQPDDFATYYCQQYNSYSLTFGGGTKVEIK
B6: 22B6D2 (anti-human HER3 chimeric antibody) (antibody, V domains shown)
VH: B1 VH
VL: DIQLTQSPSFLSASVGDRVTITCRASQGISNYLAWYQQKPGKAPKLLIFAASTLQSGVPSRFSGSGSGAEFTLTISSLEPEDFATYYCQQLNSYPITFGQGTRLEIK
notes: detected with anti-Rat IgG
B7: 47A3E3 (anti-human HER3 chimeric antibody) (antibody, V domains shown)
VH: B2 VH
VL: DIQMTQSPSTLSASVGDRVTITCRASQSLSRWLAWYQQKPEKAPKLLIYKASSLESGVPSRFSGSGSGTEFTLTISTLQPDDFATYYCQQYKNYYSFGQGTKLEIK

Legend:
[1] = molecular target: T1, monkey HER3 protein (extracellular sequence with six histidines at the C-terminal) (monkey); assay: ELISA, coated monkey HER3-His
T1 construct: Made in HEK293 cells; also called Monkey HER3-His
T1 chain: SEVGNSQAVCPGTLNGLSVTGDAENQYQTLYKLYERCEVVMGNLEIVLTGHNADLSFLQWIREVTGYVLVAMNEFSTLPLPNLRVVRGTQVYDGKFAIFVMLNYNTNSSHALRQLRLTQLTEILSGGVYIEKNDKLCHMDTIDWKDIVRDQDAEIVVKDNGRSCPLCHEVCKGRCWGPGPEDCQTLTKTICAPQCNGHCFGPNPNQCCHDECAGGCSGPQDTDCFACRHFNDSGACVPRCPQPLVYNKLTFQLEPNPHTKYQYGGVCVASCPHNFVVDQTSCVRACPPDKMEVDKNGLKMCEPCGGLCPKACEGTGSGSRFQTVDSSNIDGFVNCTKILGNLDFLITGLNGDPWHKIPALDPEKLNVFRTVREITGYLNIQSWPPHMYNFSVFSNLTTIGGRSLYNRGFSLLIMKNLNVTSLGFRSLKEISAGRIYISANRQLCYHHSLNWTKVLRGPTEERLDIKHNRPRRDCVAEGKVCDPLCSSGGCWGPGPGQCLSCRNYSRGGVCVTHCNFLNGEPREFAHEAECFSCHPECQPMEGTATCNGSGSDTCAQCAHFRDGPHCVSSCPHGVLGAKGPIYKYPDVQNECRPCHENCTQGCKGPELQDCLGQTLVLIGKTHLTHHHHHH
Description: (§1) The plate was washed 5 times with PBST (0.2% Tween-20), and dried, then 100 μl of TMB (InnoReagents) chromogenic substrate was added to each well, reacted at room temperature for 3-5 minutes, then 50 μl of 2N H₂SO₄ was added to each well to stop the chromogenic reaction, and the absorbance value at OD450 nm was read with a microplate reader. The raw data were imported into GraphPad Prism 6 software for nonlinear curve fitting, and EC50 values were calculated.

human HER3 on cells [2] = molecular target: T2, human HER3 on cells (human, UniProt P21860 20-1342); assay: flow cytometry on NCI-N87 cells
T2 construct: whole, on cells; also called T47D; NCI-N87
Description: (§2) Data processing: the Median PE values were exported, then imported into GraphPad Prism 6 software, and EC50 values were calculated.

[3] = molecular target: T3, human HER3 protein (extracellular sequence with six histidines at the C-terminal) (human, UniProt P21860 20-643); assay: ELISA, coated human HER3-His
T3 construct: extracellular domain; Made in HEK293 cells; also called Human HER3-His
Description: as §1

human HER3 on cells [4] = molecular target: T2, human HER3 on cells; assay: cell-based or functional assay
[5] = molecular target: T3, human HER3 protein (extracellular …); assay: competition ELISA on coated human HER3 protein (1 µg/ml); competitor: biotin-labelled 22B6D2-hIgG (22B6D2-hIgG-Bio, diluted to 3 ng/mL); streptavidin-HRP, OD450
Description: (§3) The plate was washed with PBST (0.2% Tween-20) for 3 times, and dried, 100 μl of diluted Peroxidase-conjugated Streptavidin secondary antibody (Proteintech) was added to each well, and incubated at room temperature for 1 hour; the plate was washed 5 times with PBST (0.2% Tween-20), and dried, 100 μl of TMB (InnoReagents) chromogenic substrate was added to each well, reacted at room temperature for 3-5 minutes; 50 μl of 2N H₂SO₄ was added to each well to stop the chromogenic reaction, and OD450 nm absorbance value was read with a microplate reader. The raw data were imported into GraphPad Prism 6 software for nonlinear curve fitting (4-parameter).

human HER3 on cells [6] = molecular target: T2, human HER3 on cells; assay: competition flow cytometry on adherent cells (cell line not named in paragraph 175); competitor: 22B6D2-hIgG-Bio, final 25 ng/ml; PE streptavidin
Description: (§4) Data processing: the Median PE values were exported, and then imported into GraphPad Prism 6 software for nonlinear curve fitting (4-parameter).

human HER3 on cells [7] = molecular target: T2, human HER3 on cells; assay: cell-based or functional assay; remark: listed apart in the source
human HER3 on cells [8] = molecular target: T2, human HER3 on cells; assay: cell-based or functional assay; remark: listed apart in the source
human HER3 on cells [9] = molecular target: T2, human HER3 on cells; assay: flow cytometry on NCI-H358 cells
Description: as §2

human HER3 on cells [10] = molecular target: T2, human HER3 on cells; assay: cell-based or functional assay; remark: listed apart in the source
human HER3 on cells [11] = molecular target: T2, human HER3 on cells; assay: flow cytometry on T47D cells
Description: as §2

[12] = molecular target: T1, monkey HER3 protein (extracellular …); assay: BLI (ForteBio), antibody captured on Protein A sensor, monkey HER3-His in solution, 1:1 global fit
Description: (§5) The measured results were entered into Data Analysis 11.0 software, by using 1:1 mode, and global fitting; the results were analyzed to obtain the association rate, dissociation rate and affinity constant.

[13] = molecular target: T3, human HER3 protein (extracellular …); assay: BLI (ForteBio), antibody captured on Protein A sensor, human HER3-His in solution, 1:1 global fit
Description: as §5

[14] = molecular target: T3, human HER3 protein (extracellular …); assay: competition ELISA on coated human HER3 protein (1 µg/ml); competitor: biotin-labelled U1-59 (U1-59-Bio, diluted to 50 ng/ml); streptavidin-HRP, OD450
Description: as §3

rat HER3 protein [15] = molecular target: T4, rat HER3 protein (rat, UniProt Q62799 20-643); assay: ELISA, rat HER3 protein coated at 1 µg/ml, anti-human IgG-HRP, OD450
T4 construct: whole entry named; also called Rat HER3-His; rat protein
Description: as §1

[16] = molecular target: T3, human HER3 protein (extracellular …); assay: competition ELISA on coated human HER3 protein (1 µg/ml); competitor: biotin-labelled 47A3E3-hIgG (47A3E3-hIgG-Bio, diluted to 15 ng/mL); streptavidin-HRP, OD450
Description: as §3

human HER3 on cells [17] = molecular target: T2, human HER3 on cells; assay: competition flow cytometry on adherent cells (cell line not named in paragraph 175); competitor: 100H7D3-hIgG-Bio, final 200 ng/ml; PE streptavidin
Description: as §4

rat HER3 protein [18] = molecular target: T4, rat HER3 protein; assay: ELISA, coated rat HER3-His
Description: as §1

[19] = molecular target: T3, human HER3 protein (extracellular …); assay: ELISA, coated human HER3 protein, chimeric antibody
Description: (§6) The plate was washed 5 times with PBST (0.2% Tween-20). After the plate was dried, 100 μl of TMB (CoWin Biotech) chromogenic substrate was added to each well, reacted at room temperature for 3-5 minutes; 50 μl of 2N H₂SO₄ was added to each well to stop the chromogenic reaction, and absorbance value at OD450 nm was read with a microplate reader. The raw data were imported into GraphPad Prism 6 software for nonlinear curve fitting, and the EC50 values of each antibody binding to human HER3 and monkey HER3 were calculated.

[20] = molecular target: T1, monkey HER3 protein (extracellular …); assay: ELISA, coated monkey HER3 protein, chimeric antibody
Description: as §6

T4 sequence (Q62799 20-643): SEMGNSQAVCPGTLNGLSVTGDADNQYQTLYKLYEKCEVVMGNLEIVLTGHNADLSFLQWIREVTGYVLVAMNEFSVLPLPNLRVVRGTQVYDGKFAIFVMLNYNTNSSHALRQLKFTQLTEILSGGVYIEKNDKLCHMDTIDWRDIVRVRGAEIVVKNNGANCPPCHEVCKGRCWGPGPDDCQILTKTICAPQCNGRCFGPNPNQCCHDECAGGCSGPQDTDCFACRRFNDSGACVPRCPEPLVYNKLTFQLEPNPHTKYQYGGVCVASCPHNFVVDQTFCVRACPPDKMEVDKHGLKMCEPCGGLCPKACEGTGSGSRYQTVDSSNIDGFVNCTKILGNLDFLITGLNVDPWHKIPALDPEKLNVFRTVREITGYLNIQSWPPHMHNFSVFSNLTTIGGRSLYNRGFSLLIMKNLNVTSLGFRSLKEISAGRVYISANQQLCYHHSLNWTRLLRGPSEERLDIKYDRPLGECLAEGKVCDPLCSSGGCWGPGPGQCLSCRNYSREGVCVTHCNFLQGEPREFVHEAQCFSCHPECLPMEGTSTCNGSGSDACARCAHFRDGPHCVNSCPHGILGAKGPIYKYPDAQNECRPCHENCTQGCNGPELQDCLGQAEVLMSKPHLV

| Binder | EC50 [1] [µg/mL] | EC50 (human HER3 on cells [2]) [µg/mL] | EC50 [3] [µg/mL] | ADCC activity, EC50 (Jurkat-NFAT/luciferase-CD16a reporter with CHO-S-hHER3 target cells) (human HER3 on cells [8]) [µg/mL] | EC50 (human HER3 on cells [9]) [µg/mL] | EC50 (human HER3 on cells [11]) [µg/mL] | Kd [12] [nM] | koff [12] [s⁻¹] | kon [12] [M⁻¹ s⁻¹] | Kd [13] [nM] | koff [13] [s⁻¹] | kon [13] [M⁻¹ s⁻¹] | EC50 [19] [µg/mL] | EC50 [20] [µg/mL] | other results |
| --- | --- | --- | --- | --- | --- | --- | --- | --- | --- | --- | --- | --- | --- | --- | --- |
| B1 | 0.00363 | 0.0446 | 0.00407 | 0.00973 | 0.0857 | 0.0383 | 49.6 | 0.00825 | 166000 | 11.1 | 0.00397 | 357000 | – | – | ADCC activity, enhancement against U1-59 (human HER3 on cells [4]): 1.86 fold; IC50 (read off the curve) [5]: ~0.4 µg/mL; IC50 (read off the curve) (human HER3 on cells [6]): ~0.1 µg/mL; internalization activity, EC50, HPAF-II cells (flow cytometry) (human HER3 on cells [7]): 0.0294 µg/mL; internalization activity, EC50, MDA-MB-453 cells (flow cytometry) (human HER3 on cells [7]): 0.0229 µg/mL; internalization activity, EC50, NCI-358 cells (flow cytometry) (human HER3 on cells [7]): 0.067 µg/mL; internalization activity, EC50, WIDR cells (flow cytometry) (human HER3 on cells [7]): 0.0301 µg/mL; IC50 of inhibition of ligand (NRG1)-induced AKT phosphorylation in MCF-7 cells (human HER3 on cells [10]): 0.0912 µg/mL |
| B2 | 0.00666 | 0.0923 | 0.00713 | 0.0223 | 0.0989 | 0.0601 | 74.8 | 0.0111 | 148000 | 29.1 | 0.0104 | 356000 | – | – | IC50 (read off the curve) [14]: ~0.1 µg/mL; binding result (rat HER3 protein [15]): no binding; IC50 (read off the curve) [16]: ~0.5 µg/mL |
| B3 | 0.0131 | 0.218 | 0.00849 | 0.0257 | 0.29 | 0.203 | 5.44 | 0.000926 | 170000 | 7.47 | 0.00226 | 302000 | – | – | IC50 (read off the curve) (human HER3 on cells [17]): ~0.4 µg/mL; EC50 (rat HER3 protein [18]): 0.00937 µg/mL |
| B4 | – | – | – | – | – | – | – | – | – | – | – | – | 0.0121 | 0.0065 | – |
| B5 | – | – | – | – | – | – | – | – | – | – | – | – | 0.0131 | 0.0187 | – |
| B6 | – | – | – | – | – | – | – | – | – | – | – | – | 0.0054 | 0.0071 | – |
| B7 | – | – | – | – | – | – | – | – | – | – | – | – | 0.0096 | 0.0101 | – |
